Laboratory results from the domain aggregation screens of Martell et al. (2025).

Test: soluble fraction after stress (log2 fold change); higher = more stays soluble; pooled small domains, quantitative proteomics
Conditions: stress: 75 degC
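Also: 20 min heating vs room temperature control held 20 min.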

| Sequence | soluble fraction (log2) |
| --- | --- |
| HMRDQARQFFIDTWAKFQRHDALTPLEEKTAAIIALHPEYHRVLQNPESFITTDWRPESGDINPFMHL | -2.02 |
| HMRDSYEVEGRIASVSPAAGTFVVAGVTVDYTGARFVGGTVAQLAPGVKVEVEGRRLANGTLQAREIEFD | -0.142 |
| HMRDSYTFEDIEKLKDSYLQDSEKALEKLISIYEDTNQSLAIRTAALDIITDSQDPTFKLALEKIIS | -0.177 |
| HMRDTAKTLLAMEVVGENNKKNLQAFGIQKGDQNYQTAVVVRLMQKALMEGDTSAIRLIGELTGD | -0.0652 |
| HMRDTLSKQLLTEEMVLQFIREMREHDPGIGGEKLHAMYLGRFGRDYEYMVGRDKMEMIIAENNLNVR | -0.996 |
| HMRDYDFGNLLYKLRIESGYTQKDIADMLGVTDKAVSKWENGIAKPTTNNIKLLSTIYNVSVEELLNG | -1.19 |
| HMRDYKTALQEWVQRTPGQPIAYRLVDELGPDHARVFVMEVTVGGQSAGQGRGRTKKEAEQLAARAALEKL | -0.448 |
| HMREEIESVYKTLAVTEIPYIARGNSARLGSGIQTVYDFYRMEGMQVSKILGRNGSVLWLELHG | 0.0223 |
| HMREEMYGLIGFITTSEVTDTFGQMEIKLENEPEMRINVRTNPGESLARGDAAKIISFNNSNGTFLVELTK | -0.921 |
| HMREFQVMKQELQEMVHQRLDMSTELSDEAIGDVIDEVIMEKSRNMYISSVTKLTLRQELFNAIR | -1.68 |
| HMREGRERRLSQLLSYLRTHHILTRSEYVKLTGLSPTAASSELKTFVTAGHIVRKGIASHSTYRLPH | -1.91 |
| HMREKLKEYVHLLFAGTVGKEDMEQEILQNTLDRFDDWVARGFSEEDAYRKAVSGIGDIDALLG | -0.0221 |
| HMREPDPELTASIKSMAESNDQSERLVALAQLSEQRAVDPEVADQILLIALLDEDPIIRGQAVYA | 0.274 |
| HMRERLPFGFAQSKKVVLLSTESDTPKVLSVNWPSLDLYAELKRVIGRAFLLEIVSEEEFQAQVSDAYQRD | -2.47 |
| HMREVGVPNLRGLTAEEAQIVLSNAGLNLRTEPIRRVHETITVGRIAEQDPMPDLTIRSQRSVTTWLSSGP | 0.328 |
| HMREVTVGSAVRLKKGAKTYSGGSLASFVYERNHQVTQLSGDRAVISFKGTVVAAVHKDDLIL | -1.06 |
| HMREVVLNRIGSVAVQRATTRTWEEWVVTLDAEGMRGKEHRDVVGHLLRAHELTSWWAQMVSVGYEQSRGQ | -0.18 |
| HMREYRITAEEGHPRIDVFLAGRPEIGLSRSRIQALIDEGQVTLNGAMPKARQAVNPGDVIVVRVPDPE | 0.0963 |
| HMRFEWFDTLTDREKEIFGLIATGFDNQQIADRLQLAEQTVRNNISTIYSKLEVKDRFEIIRLANTI | -1.35 |
| HMRFKPLAEILAAVQTRYAGRVLDVELDRDQAGRNVYEVKLLAADGSRREIHIDAVTGKEVSL | -0.56 |
| HMRGAIKMAEEQMAGHKKIGSISGTAPTQGELEKKFAMAAAQMGARYYVITGLSNNNYAFGNADIY | -0.669 |
| HMRGDEDTGVWPTPMKRAYIDSLLKGYPTGVTMIVKPPGASHTTKWMILDGANRARALRDFMNDEFMI | -0.0871 |
| HMRGFTDFEHIEKEYLATIEKLNWPDGVTLPDKLEGEDTGTSFQVGYGDTRASNLWEYSWMK | -0.163 |
| HMRGIPEEVADVAIQWVARLDSNEISDADRAAFFAWLDASPINRWAYNDISESWAKLSILNEMGH | -1.87 |

| Sequence | soluble fraction (log2) |
| --- | --- |
| HMRGLFTVYMVGEKASRVGELDEEMVYESRIGDVFALGATSWRIEEITHDRVLVSPAYGQPGRLPFWH | -2.13 |
| HMRGLGDLEPVDSLGKIRIDDGHMVLAFGRHKGRHLSEVQAEDPRYIHWLLSPKGIEDVEAREKVKVYLEG | 0.0762 |
| HMRGLLSQREHDVLDLVARGFSYGEIARLRSISVSTVQTHIKNLYRKLAVSSRTEAVYEAKQMGI | -1.63 |
| HMRGLVPEIVGTLEGEIRAGTLAVGQKLPTEAEIMARFDVSRTVVREALSRLQASDLVETRHGIGTFVSAR | -0.647 |
| HMRGPDLSKDFHEYISSQWMFFGRNAYQIAEQINKDTQLMSKYGKTTPSGVHYHIKQIQQEMEN | -0.785 |
| HMRGPPQVLVDVELEDGRVGQIGVRNGDDATELAETFVRAFRLEQSFVGRLANVIQGKIRELLHSQ | -1.74 |
| HMRGSRIFSGDVSPLTLPANSPFFSGYTEFKPGDVYVERSATNIAMWEWKSQPGGYTWVKTADIA | -1.27 |
| HMRGYGDRIRILRERAGITIEQLAERLGVAPYFIRRTELSEVYPTKPYIEALADVLNIDASYLARHI | -2.46 |
| HMRHYVLKENNGVIAIYKVNQENEAVFKENTQIQVQYLPEVDLINLKKGIYAIGEEKLNSILEDF | -0.667 |
| HMRIDSFEDARRRFEYDYLTRLLKLTQGSVTQAAKLAKRNRTEFYKLLQRHGIEAAHFKPTS | -1.53 |
| HMRIDVWLAENGFAPSRQKAQDLIAAGRVFQTDPSGRRQKVSKASAAVDPALSPKIEVIPDPE | -0.0608 |
| HMRILGIDPGYAITGYSIIDYVGNKFKLIDSGAVLTKAGVSFPLRLTKIYDDLSMIIDEYKPDA | 0.0296 |
| HMRIPANIAEDIKKLQKKEHHLHHHLGRDPFDDELAKELEWDTEQVSEIRQMIKNPELLEELLEAEREEE | 0.0316 |
| HMRITEQRRTLAKLFADTPGYLSPKDVYDYMGRFYPGLSFDTVYRNLRLLDELGVLEQVVFEDGVKFK | -0.847 |
| HMRIWTISDLYKNVEDKKVSLAVFSEDNDSNKVNVLDINGEEHSVNLLKADLPTLVDLFRKNDVRFAVRSN | -0.116 |
| HMRIWTPEMIKEYIISSNGKEPLNSHYYSTNHPSIYAAAERIFGSWGNAINAAGLDYNAIRKYK | -0.488 |
| HMRIYFSPSEIGFYHESDKQAYLLAGTWPNDLLEISEKWFLYLLEGQQKGKVITVNDYDQPVLVD | -2.9 |
| HMRIYTKDEYLAELSRYLHKLPQDDYESAMAYFREYFEEAGPENEAQAMRDLGTPKEAASEILQNLLH | -0.401 |
| HMRKDYTVLYSAVNAEEATEIVSKLQESGVAYQYKDNGDVLVDKKQVDKVRAQLAQEGYPKS | 0.0467 |
| HMRKIEDVLRLHAQGMSTRRIALATGVGKTTVIEYLRRAAVAGLSWPLPEGLDEEALERRVFPPPP | -2.59 |
| HMRKIFPFNPNFITDQRGYFLGMSTSEIDRLHHFRAANKWIQSAQEFQVVTKVSNAWLSEFSPYFNFP | -3.87 |
| HMRKKTYEIITDDLRRMIEAGLIRPGEKLGAIDQLAAKYRVGRSTVREALSHLKALGLVESRQGGGTYVTK | 0.375 |
| HMRKNVAGITPNVYGMGLKDAVYLLENAGYRVKVNGRGNVVRQSINSGTRIIKGQLIILDLD | -3.62 |
| HMRKSNADALDGKTGIVKEEIKTGGYGYVGIDGDMWRSISESGEAIPAGTKVVVISHESIILTVKPA | -2.23 |

| Sequence | soluble fraction (log2) |
| --- | --- |
| HMRKTLASTAYDSIKAGIVSGEINNNLLLSENTLAKILNMSRTPIREAIKRLEAESYLKSVDGVGLIVQE | -0.43 |
| HMRKTLSQEAYEKIKQNLEDGVYQGYINGRQVARDLDIGFTPVREAFLQLQSEGLIRKEDNVGYFV | -0.107 |
| HMRKTYHVDAYQDDKWWVLQVQEMPNAISQVKSLDQADEWIREAINIVSNEPEDSFDVVIIPV | -0.404 |
| HMRKVTDTHELSSVVKSVIDQWEEKAAEYRAGKSGLLGFFVGEVMKKTGGAADPEAAKSLLQDRLD | 0.0219 |
| HMRKYEAVPASVVPAQIQEYVAKSNFPNQYIRKIERNKYTWEIELSNGLEIKFDRQFNVIGFD | -2.59 |
| HMRLGQLQSVEEPKFIEVHSGKQGDIGEQTIVEYEIDAKYATGDATINLKLLFRDGLFEIYNFNFSSEALL | 0.133 |
| HMRLNIRTKNNYSYYTIIKDYTNLNGKRTTTIFEKLGNQQQVEERFGKVNTIENIKKYIEELNNE | -1.65 |
| HMRLPAISYSFARKHGVVLRLDGDRPVASLREGADPAILIEVKRHLDGAMGVEKVSEAAFDQLLSTTYA | -1.53 |
| HMRLPNGYGSITKLSGKRRKPFMVRITTGYDNEGKQLMSVLGYYATRTEALAVLAEYNKNPYNPI | -3.36 |
| HMRLPNHYGSVVKLSGKRRRPFMVRGGVYGYDDRGYPQYVIVGYTETREQGLTMLAEYNRNP | -3.17 |
| HMRLPVELTDREVEVLRLLAQAMSNGEIARELYIGEATVKTHVSNVLQKLGARDRVAAVVWAHRYGL | -2.08 |
| HMRLSAADLQSYLKGMDYPASRQDLIAHARGHNAPEEAVATLEQFSDRTYRSAADVSVEFGRE | 0.254 |
| HMRLSPTMVETLIAMLNRNAYPAYENNSRTFASLEERGLIQPDIEGNWSLTDTGHQTALKLLK | 0.463 |
| HMRLSVRQRMSDVLGALKTQAFVEFTQLFRPQEGRMGVTVTFSAILELLREGLIEIVQSEPFAPIHVRAGA | 0.183 |
| HMRMDKHLWLSLLRLINEGSAEELQTKKDELLQSLERLRITRGPVRGDVLRVVRLIDEELVSRLHLDQR | -2.58 |
| HMRMTKPLPFDLAAFRNEFGFTKSIIMQEVGVSRHIYDNVERTNATPPEFYDDFVSFFQRHGQ | -1.88 |
| HMRMTPRQALDDLIREREETYAAVSRLLGRNTAYIQQYIKRGTPARLDQSDIAQLALHFDVPAKLLGGKE | -1.16 |
| HMRMTTEQLMSFLKQHFPQVADNFTVRISDEGRLSVEMPVNDKHLRPGGTVSGPSMFALADVAFYLAILQ | -1.56 |
| HMRNERDRQLYAAMEKLKAEYREALYLVYFENMSYRDAAAVMAQTEKQISNLVYRGKQSLKTILEQEGF | -2.6 |
| HMRNGGHTVYRNNGSLFIVVRDGDKLESVASEFRVSPKKLIKYNDLDIHSNVKTGDMIYIRPKA | -0.423 |
| HMRNLYEILGVSKDAPQGEIKSAYRKLAKTYHPDLNPNNEKAAELFKEINQAYEVLSDETKRRHYDQFGEA | 0.342 |
| HMRNMTDYLTIVRAVYGGLSQRQAATTYHVSRNTVSLLIRHAKNQGWLTVEDLSRADAAAFSPA | -0.393 |
